Test results published in patent publication US20200264182A1, “METHOD FOR DETECTING PROSTATE CANCER” (J-OIL MILLS, INC., priority 2017, published 2020).

How the values were obtained:
[1] = Binding to sugar chains, summary of Tables 2 to 5
Protocol: (§1) Details of the FAC method are described in Patent Document 2 filed by some of the present applicants, for example.
(§2) Binding constants (at 25° C.) of PhoSL, SRL, NSL and LSL belonging to the fucose α1→6 specific lectin for various sugar chains are shown in Tables 2 to 5.
The AAL and AOL bind to the fucose α1→6 sugar chains (sugar chains No. 015, 201 to 203, and 401 to 418), as well as to the glycolipid-type sugar chain excluding the fucose α1→6 (sugar chains No. 718, 722, 723, 727, 909, 910 and 933). The LCL and PSL bind to the fucose α1→6 sugar chain, as well as to sugar chain excluding the α1→6 fucose (sugar chains No. 003, and 005 to 014).
Furthermore, the binding constant of the fucose α1→6 specific lectin is not decreased even if a sialic acid is added to the fucose α1→6 sugar chain (sugar chains No. 601 and 602). In addition, the fucose α1→6 specific lectin also strongly binds to the triple-strand (sugar chains No. 407 to 413) and the four-strand (sugar chains No. 418) of the fucose uα1→6 sugar chain.

FAC binding constant = conditions: at 25° C.
Protocol: as §1, §2

[2] = FAC binding constant (Table 5 entry); conditions: Table 5: sugar chain having no fucose; at 25° C.
Protocol: as §1, §2

[3] = sugar chain having fucose other than α1→6 fucose

B1: LCL: Lens culinaris lectin, affinity for fucose α1→6 but not specific (protein)
chain 1: TETTSFSITKFSPDQKNLIFQGDGYTTKGKLTLTKAVKSTVGRALYSTPIHIWDRDTGNVANFVTSFTFVIDAPSSYNVADEFTFFIAPVDTKPQTGGGYLGVFNSKEYDKTSQTVAVEFDTFYNAAWDPSNKERHIGIDVNSIKSVNTKSWNLQNGERANVVIAFNAATNVLTVTLTYP
chain 2: VTSYTLNEVVPLKDVVPEWVRIGFSATTGAEFAAHEVHSWSFHSELGGTSSS
Which results are given for B1?
binding to sugar chain excluding the α1→6 fucose (in words) ([1]; sugar chains No. 003, and 005 to 014 for LCL and PSL): bind; binding to the fucose α1→6 sugar chains (in words) ([1]; sugar chains No. 015, 201 to 203, and 401 to 418): bind; Binding constant for sugar chain No. 728 (FAC binding constant; Table 3: sugar chain having fucose other than α1→6 fucose): <1000 M⁻¹; Binding constant for sugar chain No. 419 (FAC binding constant; [3]): <1000 M⁻¹; Binding constant for sugar chain No. 420 (FAC binding constant; [3]): <1000 M⁻¹; Binding constant for sugar chain No. 718 (FAC binding constant; [3]): <1000 M⁻¹; Binding constant for sugar chain No. 719 (FAC binding constant; [3]): <1000 M⁻¹; Binding constant for sugar chain No. 720 (FAC binding constant; [3]): <1000 M⁻¹; Binding constant for sugar chain No. 721 (FAC binding constant; [3]): <1000 M⁻¹; Binding constant for sugar chain No. 722 (FAC binding constant; [3]): <1000 M⁻¹; Binding constant for sugar chain No. 723 (FAC binding constant; [3]): <1000 M⁻¹; Binding constant for sugar chain No. 726 (FAC binding constant; [3]): <1000 M⁻¹; Binding constant for sugar chain No. 727 (FAC binding constant; [3]): <1000 M⁻¹; Binding constant for sugar chain No. 729 (FAC binding constant; [3]): <1000 M⁻¹; Binding constant for sugar chain No. 730 (FAC binding constant; [3]): <1000 M⁻¹; Binding constant for sugar chain No. 731 (FAC binding constant; [3]): <1000 M⁻¹; Binding constant for sugar chain No. 739 (FAC binding constant; [3]): <1000 M⁻¹; Binding constant for sugar chain No. 909 (FAC binding constant; [3]): <1000 M⁻¹; Binding constant for sugar chain No. 910 (FAC binding constant; [3]): <1000 M⁻¹; Binding constant for sugar chain No. 931 (FAC binding constant; [3]): <1000 M⁻¹; Binding constant for sugar chain No. 932 (FAC binding constant; [3]): <1000 M⁻¹; Binding constant for sugar chain No. 933 (FAC binding constant; [3]): <1000 M⁻¹; Binding constant for sugar chain No. 001 (FAC binding constant; sugar chain having no fucose): <1000 M⁻¹; Binding constant for sugar chain No. 002 (FAC binding constant; sugar chain having no fucose): <1000 M⁻¹; Binding constant for sugar chain No. 003 (FAC binding constant; sugar chain having no fucose): 7200 M⁻¹; Binding constant for sugar chain No. 004 (FAC binding constant; sugar chain having no fucose): <1000 M⁻¹; Binding constant for sugar chain No. 005 (FAC binding constant; sugar chain having no fucose): <1000 M⁻¹; Binding constant for sugar chain No. 006 (FAC binding constant; sugar chain having no fucose): 14000 M⁻¹; Binding constant for sugar chain No. 007 (FAC binding constant; sugar chain having no fucose): <1000 M⁻¹; Binding constant for sugar chain No. 008 (FAC binding constant; sugar chain having no fucose): 18000 M⁻¹; Binding constant for sugar chain No. 009 (FAC binding constant; sugar chain having no fucose): 18000 M⁻¹; Binding constant for sugar chain No. 010 (FAC binding constant; sugar chain having no fucose): 13000 M⁻¹; Binding constant for sugar chain No. 011 (FAC binding constant; sugar chain having no fucose): 14000 M⁻¹; Binding constant for sugar chain No. 012 (FAC binding constant; sugar chain having no fucose): 25000 M⁻¹; Binding constant for sugar chain No. 013 (FAC binding constant; sugar chain having no fucose): 17000 M⁻¹; Binding constant for sugar chain No. 014 (FAC binding constant; sugar chain having no fucose): 17000 M⁻¹; Binding constant for sugar chain No. 101 (FAC binding constant; sugar chain having no fucose): <1000 M⁻¹; Binding constant for sugar chain No. 103 (FAC binding constant; sugar chain having no fucose): <1000 M⁻¹; Binding constant for sugar chain No. 104 (FAC binding constant; sugar chain having no fucose): <1000 M⁻¹; Binding constant for sugar chain No. 105 (FAC binding constant; sugar chain having no fucose): <1000 M⁻¹; Binding constant for sugar chain No. 107 (FAC binding constant; sugar chain having no fucose): <1000 M⁻¹; Binding constant for sugar chain No. 108 (FAC binding constant; sugar chain having no fucose): <1000 M⁻¹; Binding constant for sugar chain No. 301 (FAC binding constant; sugar chain having no fucose): <1000 M⁻¹; Binding constant for sugar chain No. 304 (FAC binding constant; sugar chain having no fucose): <1000 M⁻¹; Binding constant for sugar chain No. 305 (FAC binding constant; sugar chain having no fucose): <1000 M⁻¹; Binding constant for sugar chain No. 307 (FAC binding constant; sugar chain having no fucose): <1000 M⁻¹; Binding constant for sugar chain No. 308 (FAC binding constant; sugar chain having no fucose): <1000 M⁻¹; Binding constant for sugar chain No. 313 (FAC binding constant; sugar chain having no fucose): <1000 M⁻¹; Binding constant for sugar chain No. 314 (FAC binding constant; sugar chain having no fucose): <1000 M⁻¹; Binding constant for sugar chain No. 323 (FAC binding constant; sugar chain having no fucose): <1000 M⁻¹; Binding constant for sugar chain No. 501 (FAC binding constant; sugar chain having no fucose): <1000 M⁻¹; Binding constant for sugar chain No. 502 (FAC binding constant; sugar chain having no fucose): <1000 M⁻¹; Binding constant for sugar chain No. 503 (FAC binding constant; sugar chain having no fucose): <1000 M⁻¹; Binding constant for sugar chain No. 504 (FAC binding constant; sugar chain having no fucose): <1000 M⁻¹; Binding constant for sugar chain No. 701 (FAC binding constant; sugar chain having no fucose): <1000 M⁻¹; Binding constant for sugar chain No. 702 (FAC binding constant; sugar chain having no fucose): <1000 M⁻¹; Binding constant for sugar chain No. 703 (FAC binding constant; sugar chain having no fucose): <1000 M⁻¹; Binding constant for sugar chain No. 704 (FAC binding constant; sugar chain having no fucose): <1000 M⁻¹; Binding constant for sugar chain No. 705 (FAC binding constant; sugar chain having no fucose): <1000 M⁻¹; Binding constant for sugar chain No. 706 (FAC binding constant; sugar chain having no fucose): <1000 M⁻¹; Binding constant for sugar chain No. 707 (FAC binding constant; sugar chain having no fucose): <1000 M⁻¹; Binding constant for sugar chain No. 708 (FAC binding constant; sugar chain having no fucose): <1000 M⁻¹; Binding constant for sugar chain No. 709 (FAC binding constant; sugar chain having no fucose): <1000 M⁻¹; Binding constant for sugar chain No. 710 (FAC binding constant; sugar chain having no fucose): <1000 M⁻¹; Binding constant for sugar chain No. 711 (FAC binding constant; sugar chain having no fucose): <1000 M⁻¹; Binding constant for sugar chain No. 712 (FAC binding constant; sugar chain having no fucose): <1000 M⁻¹; Binding constant for sugar chain No. 713 (FAC binding constant; sugar chain having no fucose): <1000 M⁻¹; Binding constant for sugar chain No. 715 (FAC binding constant; sugar chain having no fucose): <1000 M⁻¹; Binding constant for sugar chain No. 716 (FAC binding constant; sugar chain having no fucose): <1000 M⁻¹; Binding constant for sugar chain No. 717 (FAC binding constant; sugar chain having no fucose): <1000 M⁻¹; Binding constant for sugar chain No. 724 (FAC binding constant; sugar chain having no fucose): <1000 M⁻¹; Binding constant for sugar chain No. 725 (FAC binding constant; sugar chain having no fucose): <1000 M⁻¹; Binding constant for sugar chain No. 732 (FAC binding constant; sugar chain having no fucose): <1000 M⁻¹; Binding constant for sugar chain No. 733 (FAC binding constant; sugar chain having no fucose): <1000 M⁻¹; Binding constant for sugar chain No. 734 (FAC binding constant; sugar chain having no fucose): <1000 M⁻¹; Binding constant for sugar chain No. 735 (FAC binding constant; sugar chain having no fucose): <1000 M⁻¹; Binding constant for sugar chain No. 736 (FAC binding constant; sugar chain having no fucose): <1000 M⁻¹; Binding constant for sugar chain No. 737 (FAC binding constant; sugar chain having no fucose): <1000 M⁻¹; Binding constant for sugar chain No. 738 (FAC binding constant; sugar chain having no fucose): <1000 M⁻¹; Binding constant for sugar chain No. 901 (FAC binding constant; sugar chain having no fucose): <1000 M⁻¹; Binding constant for sugar chain No. 902 (FAC binding constant; sugar chain having no fucose): <1000 M⁻¹; Binding constant for sugar chain No. 903 (FAC binding constant; sugar chain having no fucose): <1000 M⁻¹; Binding constant for sugar chain No. 905 (FAC binding constant; sugar chain having no fucose): <1000 M⁻¹; Binding constant for sugar chain No. 906 (FAC binding constant; sugar chain having no fucose): <1000 M⁻¹; Binding constant for sugar chain No. 907 (FAC binding constant; sugar chain having no fucose): <1000 M⁻¹; Binding constant for sugar chain No. 015 (FAC binding constant; sugar chain having α1→6 fucose): 56000 M⁻¹; Binding constant for sugar chain No. 201 (FAC binding constant; sugar chain having α1→6 fucose): 500000 M⁻¹; Binding constant for sugar chain No. 202 (FAC binding constant; sugar chain having α1→6 fucose): 110000 M⁻¹; Binding constant for sugar chain No. 203 (FAC binding constant; sugar chain having α1→6 fucose): 730000 M⁻¹; Binding constant for sugar chain No. 401 (FAC binding constant; sugar chain having α1→6 fucose): 42000 M⁻¹; Binding constant for sugar chain No. 402 (FAC binding constant; sugar chain having α1→6 fucose): 59000 M⁻¹; Binding constant for sugar chain No. 403 (FAC binding constant; sugar chain having α1→6 fucose): 99000 M⁻¹; Binding constant for sugar chain No. 404 (FAC binding constant; sugar chain having α1→6 fucose): 58000 M⁻¹; Binding constant for sugar chain No. 405 (FAC binding constant; sugar chain having α1→6 fucose): 47000 M⁻¹; Binding constant for sugar chain No. 406 (FAC binding constant; sugar chain having α1→6 fucose): 18000 M⁻¹; Binding constant for sugar chain No. 407 (FAC binding constant; sugar chain having α1→6 fucose): 1000 M⁻¹; Binding constant for sugar chain No. 410 (FAC binding constant; sugar chain having α1→6 fucose): <1000 M⁻¹; Binding constant for sugar chain No. 413 (FAC binding constant; sugar chain having α1→6 fucose): <1000 M⁻¹; Binding constant for sugar chain No. 418 (FAC binding constant; sugar chain having α1→6 fucose): <1000 M⁻¹; Binding constant for sugar chain No. 601 (FAC binding constant; sugar chain having α1→6 fucose): 30000 M⁻¹; Binding constant for sugar chain No. 602 (FAC binding constant; sugar chain having α1→6 fucose): 24000 M⁻¹; Binding constant for sugar chain No. 728 [2]: <1000 M⁻¹
